± gives the standard deviation of the averaged measurements.
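Further: ATP exposure 15 min at 22 °C before imaging.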

The subject of this data set is ATP. In words: switch fluorescence ratio, 500 uM ATP over buffer (Cy3 cluster intensity, sum of 5 cycles each) (fold (ratio)); higher = stronger signal-on switching upon ATP binding; sequences stand for … in TCGTCGGCAGCGTCAGATGTGTATAAGAGACAGTTTTTTTTTTTTTTTTTTTTTTTTT…TC. The settings on record: aptamer strand: ATP DNA aptamer (quencher-CACCTGGGGGAGTATTGCGGAGGAAGG + anchor), 100 nM annealed; ATP concentration: 500 uM. The essentials: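 Switching-strand clusters labelled with Cy3 on a modified Illumina MiSeq flow-cell were annealed to 100 nM quencher-labelled ATP aptamer, imaged in selection buffer, and re-imaged after 15 min with 500 uM ATP at 22 °C. This was done over five cycles with NaOH stripping and re-annealing in between. The fluorescence ratio is summed target-cycle over summed buffer-cycle Cy3 intensity per cluster, averaged per switch-domain sequence, excluding clusters outside 100-1000 RFU.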
Regarding ACGCAGTTCT, the switch fluorescence ratio worked out at 1.061 ± 0.008.
For TGGGGGGCCG, the switch fluorescence ratio was 1.06 ± 0.19.
On to GGGCTAGGGT, for which the switch fluorescence ratio stood at 1.02 ± 0.023.
Then CGGGCTGGCA, with 1.004 ± 0.01; and TTCAACGACG, with 0.988 ± 0.082; and CCAGGGTTGG, with 1.04 ± 0.048.
In the case of TAAAATTTGT, the switch fluorescence ratio turned out to be 1.01 ± 0.05.
Then ATATTTTGAC, with 1.05 ± 0.061.
On to GGGCGGGGTA, for which the switch fluorescence ratio came out at 1.01 ± 0.027.
As to CCTGAGGTTA, the switch fluorescence ratio was determined as 1.03 ± 0.096.
The value for AAGTGGCATG was 0.974 ± 0.022.
Regarding ATCACAAATA, the switch fluorescence ratio amounted to 1.02 ± 0.024.
Regarding TAAAATAAAG, the switch fluorescence ratio was determined as 0.993 ± 0.033.
Take ACGCTCGACC: the switch fluorescence ratio was found to be 1.75 ± 0.15.
As to GGTAGGGTGC, the switch fluorescence ratio was 0.985 ± 0.074.
Take GAGAGGTGGG: the switch fluorescence ratio stood at 1.01 ± 0.024.
With TTACTCGTCT, the switch fluorescence ratio came out at 1.08 ± 0.056.
For AAGGCGTAGT, the switch fluorescence ratio is 0.979 ± 0.055.
The value for TGGTATGGGG was 1.03 ± 0.087; that for TGGTATGTAG was 1.02 ± 0.031.
As for GATGAAGGTT, the switch fluorescence ratio is 0.992 ± 0.027.
As to GTTAGCGGGG, the switch fluorescence ratio worked out at 0.9823 ± 0.0048.
Regarding AAATGGTTGG, the switch fluorescence ratio amounted to 0.995 ± 0.025.
Consider GATGTGATTT, for which the switch fluorescence ratio was determined as 1.08 ± 0.078.
Then CAGACAGGGG, with 1.05 ± 0.02.
As to CAACCTGCGA, the switch fluorescence ratio worked out at 1.4175 ± 0.0011.
As for TAATATAAAC, the switch fluorescence ratio worked out at 1.002 ± 0.0078.
In the case of ATGGTCGGCC, the switch fluorescence ratio was 0.9831 ± 0.0052.
Then ACCAATTTTG, with 1.01 ± 0.024.
With AGTTGAACCA, the switch fluorescence ratio turned out to be 1 ± 0.012.
CGGCGGGCGA: the switch fluorescence ratio is 1.03 ± 0.02.
As to ACTGTCGTCT, the switch fluorescence ratio was found to be 1.0405 ± 0.00033.
Then TCTCGATTTT, with 1.038 ± 0.0042.
With CGGAAGGCTA, the switch fluorescence ratio was found to be 1.025 ± 0.0069.
Turning to ACGGCGCTTA, the switch fluorescence ratio is 1.19 ± 0.054.
On to GTAAAATAGA, for which the switch fluorescence ratio was found to be 1.01 ± 0.034.
Then GCTAGTTATG, with 1.04 ± 0.1; and CATTATAGAT, with 0.997 ± 0.021; and GGAGTTAATC, with 1.04 ± 0.037.
Take TTTGAGGGGT: the switch fluorescence ratio is 1.03 ± 0.065.
Consider CGGTGAAATG, for which the switch fluorescence ratio stood at 0.975 ± 0.017.
CGAAGGGTGA: the switch fluorescence ratio came out at 1.06 ± 0.02.
The value for ACGAGTGAAA was 1.02 ± 0.045; that for TTTTGTTTA was 0.984 ± 0.022; that for TTTGATTTGG was 0.921 ± 0.022.
With AAGTTTTCGG, the switch fluorescence ratio worked out at 0.989 ± 0.052.
On to CGTGTGATTT, for which the switch fluorescence ratio was 0.988 ± 0.025.
Then TTAGTATGTT, with 1 ± 0.035; and CGGGAGGACT, with 0.989 ± 0.057.
Turning to GAGAGCCGTT, the switch fluorescence ratio came out at 1 ± 0.017.
On to AAGGAGGCAC, for which the switch fluorescence ratio stood at 0.985 ± 0.021.
Take CAAGAATTTG: the switch fluorescence ratio was found to be 0.9816 ± 0.0097.
ACATCTTTTA: the switch fluorescence ratio was 1.03 ± 0.038.
The value for AAGTGGTATT was 0.992 ± 0.029; that for TGAATAGAGG was 1.012 ± 0.0024.
The value for TCCTACTGTA was 1.1974 ± 0.00047; that for GATAAATTTT was 0.974 ± 0.023; that for TCGGTTTATA was 0.997 ± 0.01.
GGGGTTTGG: the switch fluorescence ratio amounted to 1.004 ± 0.0067.
The value for GGAGGAGGTG was 1.02 ± 0.065; that for ATTTTAATAT was 0.987 ± 0.03; that for TAGCCTGGAC was 1.1 ± 0.031.
Turning to AGAATGGGGA, the switch fluorescence ratio was 1.02 ± 0.0092.
ATCTTAAGTA: the switch fluorescence ratio amounted to 0.9977 ± 0.0091.
For TTACCGTACG, the switch fluorescence ratio is 1.45 ± 0.11.
Then ATGGGTTTTT, with 0.979 ± 0.029; and ATCTGCGCGC, with 0.992 ± 0.011.
Consider ATTTTGTAAT, for which the switch fluorescence ratio came out at 1 ± 0.019.
Then ATATCGTTGA, with 0.978 ± 0.021; and TGTTAGTTTG, with 0.981 ± 0.029; and CATTAAGTCT, with 1.02 ± 0.036.
With TGGGGTCGGG, the switch fluorescence ratio turned out to be 1 ± 0.022.
As for TAGTGGCCTG, the switch fluorescence ratio is 0.955 ± 0.023.
The value for GGTGGTCCCT was 0.99 ± 0.04; that for TAATAATTGT was 1.018 ± 0.0078.
For TTTAGTGGTT, the switch fluorescence ratio was 1.02 ± 0.044.
Consider TGGGGGCCCT, for which the switch fluorescence ratio worked out at 0.996 ± 0.026.
As for GTTTGGGTTA, the switch fluorescence ratio was 1.01 ± 0.016.
Consider TCTTATGGGG, for which the switch fluorescence ratio was 0.994 ± 0.019.

For the origin of these results see the supplement of paper PMC10126150.
